Results from publication PMC12865225 (Clinical and Translational Science, 2026).
“And” between values parts separate entries of the source, which are not always exact repeats. Identical values can stand only once.

Columns and labels:
OATP1B1 = target: T1, OATP1B1 (Homo sapiens, UniProt Q9Y6L6); parameters: method as in PMID 23571415; details: 10 μM in vitro; cited from earlier work
T1 construct: expressed in transfected cells; host or cells: HEK293 (recombinant baculovirus-mediated transduction)
T1 sequence (Q9Y6L6 1-691): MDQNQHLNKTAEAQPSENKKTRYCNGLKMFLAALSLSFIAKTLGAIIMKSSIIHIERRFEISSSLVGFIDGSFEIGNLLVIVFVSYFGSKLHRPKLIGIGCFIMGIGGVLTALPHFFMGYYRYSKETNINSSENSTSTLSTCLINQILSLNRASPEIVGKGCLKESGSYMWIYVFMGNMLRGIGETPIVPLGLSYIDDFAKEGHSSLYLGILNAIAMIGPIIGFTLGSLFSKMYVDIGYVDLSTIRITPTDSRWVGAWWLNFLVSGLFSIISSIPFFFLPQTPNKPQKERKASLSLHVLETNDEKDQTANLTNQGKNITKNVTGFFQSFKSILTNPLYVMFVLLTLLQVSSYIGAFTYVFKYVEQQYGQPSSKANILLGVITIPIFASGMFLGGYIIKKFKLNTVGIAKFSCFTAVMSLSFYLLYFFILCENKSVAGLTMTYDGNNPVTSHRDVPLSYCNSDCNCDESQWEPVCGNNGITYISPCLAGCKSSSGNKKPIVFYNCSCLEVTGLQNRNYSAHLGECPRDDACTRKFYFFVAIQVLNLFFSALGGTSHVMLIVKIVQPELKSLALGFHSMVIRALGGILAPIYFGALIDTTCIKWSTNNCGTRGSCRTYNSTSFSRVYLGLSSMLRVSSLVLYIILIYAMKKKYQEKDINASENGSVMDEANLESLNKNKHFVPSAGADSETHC

OATP1B3 = target: T2, OATP1B3 (Homo sapiens, UniProt Q9NPD5); parameters: method as in PMID 23571415; details: 10 μM in vitro; cited from earlier work
T2 construct: expressed in transfected cells; host or cells: HEK293 (recombinant baculovirus-mediated transduction)
T2 sequence (Q9NPD5 1-702): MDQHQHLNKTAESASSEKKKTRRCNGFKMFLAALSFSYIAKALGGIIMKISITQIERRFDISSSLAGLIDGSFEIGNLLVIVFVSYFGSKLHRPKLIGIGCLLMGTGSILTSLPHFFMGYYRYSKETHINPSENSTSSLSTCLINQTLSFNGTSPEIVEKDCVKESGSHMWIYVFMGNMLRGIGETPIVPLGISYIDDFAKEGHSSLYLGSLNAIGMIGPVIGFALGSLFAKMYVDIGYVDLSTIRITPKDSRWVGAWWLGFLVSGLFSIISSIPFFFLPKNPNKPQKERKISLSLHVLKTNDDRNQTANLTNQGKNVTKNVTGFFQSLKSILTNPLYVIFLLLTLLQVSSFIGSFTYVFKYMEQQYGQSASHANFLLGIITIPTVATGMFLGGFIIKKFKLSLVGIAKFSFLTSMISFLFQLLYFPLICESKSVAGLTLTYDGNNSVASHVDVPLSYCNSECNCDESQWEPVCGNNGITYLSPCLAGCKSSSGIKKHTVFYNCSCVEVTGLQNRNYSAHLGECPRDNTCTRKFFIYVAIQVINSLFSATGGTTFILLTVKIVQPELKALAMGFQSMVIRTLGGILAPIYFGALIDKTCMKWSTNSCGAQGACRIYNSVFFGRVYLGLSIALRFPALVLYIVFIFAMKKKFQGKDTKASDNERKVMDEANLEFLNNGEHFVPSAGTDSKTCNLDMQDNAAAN

[1] = substrate: Cc1onc(-c2c(Cl)cccc2Cl)c1C(=O)N[C@@H]1C(=O)N2[C@@H]1SC(C)(C)[C@@H]2C(=O)O; experiment: cells, lysate or membranes; details: other: uptake, 2 min; pH 7.4; 37.0 °C
[2] = substrate: Cc1onc(-c2c(F)cccc2Cl)c1C(=O)N[C@@H]1C(=O)N2[C@@H]1SC(C)(C)[C@@H]2C(=O)O; experiment: cells, lysate or membranes; details: other: uptake, 2 min; pH 7.4; 37.0 °C

Molecule: Cc1onc(-c2ccccc2Cl)c1C(=O)N[C@@H]1C(=O)N2[C@@H]1SC(C)(C)[C@@H]2C(=O)O [cloxacillin]
- inhibition of OATP1B1 transport (OATP1B1): around 50%
- inhibition of OATP1B3 transport (OATP1B3): around 50%

B1: OAT3 (Homo sapiens) (protein)
chain: MTFSEILDRVGSMGHFQFLHVAILGLPILNMANHNLLQIFTAATPVHHCRPPHNASTGPWVLPMGPNGKPERCLRFVHPPNASLPNDTQRAMEPCLDGWVYNSTKDSIVTEWDLVCNSNKLKEMAQSIFMAGILIGGLVLGDLSDRFGRRPILTCSYLLLAASGSGAAFSPTFPIYMVFRFLCGFGISGITLSTVILNVEWVPTRMRAIMSTALGYCYTFGQFILPGLAYAIPQWRWLQLTVSIPFFVFFLSSWWTPESIRWLVLSGKSSKALKILRRVAVFNGKKEEGERLSLEELKLNLQKEISLAKAKYTASDLFRIPMLRRMTFCLSLAWFATGFAYYSLAMGVEEFGVNLYILQIIFGGVDVPAKFITILSLSYLGRHTTQAAALLLAGGAILALTFVPLDLQTVRTVLAVFGKGCLSSSFSCLFLYTSELYPTVIRQTGMGVSNLWTRVGSMVSPLVKITGEVQPFIPNIIYGITALLGGSAALFLPETLNQPLPETIEDLENWSLRAKKPKQEPEVEKASQRIPLQPHGPGLGSS
- Km [1]: 22.4 µM
- Km [2]: 27.0 µM

B2: OATP1B1 (Homo sapiens) (protein)
chain: T1 sequence (Q9Y6L6 1-691)
- Km [1]: 3.22 µM and 3 µM
- Km [2]: 10.4 µM

B3: OATP2B1 (Homo sapiens) (protein)
chain: MGPRIGPAGEVPQVPDKETKATMGTENTPGGKASPDPQDVRPSVFHNIKLFVLCHSLLQLAQLMISGYLKSSISTVEKRFGLSSQTSGLLASFNEVGNTALIVFVSYFGSRVHRPRMIGYGAILVALAGLLMTLPHFISEPYRYDNTSPEDMPQDFKASLCLPTTSAPASAPSNGNCSSYTETQHLSVVGIMFVAQTLLGVGGVPIQPFGISYIDDFAHNSNSPLYLGILFAVTMMGPGLAFGLGSLMLRLYVDINQMPEGGISLTIKDPRWVGAWWLGFLIAAGAVALAAIPYFFFPKEMPKEKRELQFRRKVLAVTDSPARKGKDSPSKQSPGESTKKQDGLVQIAPNLTVIQFIKVFPRVLLQTLRHPIFLLVVLSQVCLSSMAAGMATFLPKFLERQFSITASYANLLIGCLSFPSVIVGIVVGGVLVKRLHLGPVGCGALCLLGMLLCLFFSLPLFFIGCSSHQIAGITHQTSAHPGLELSPSCMEACSCPLDGFNPVCDPSTRVEYITPCHAGCSSWVVQDALDNSQVFYTNCSCVVEGNPVLAGSCDSTCSHLVVPFLLLVSLGSALACLTHTPSFMLILRGVKKEDKTLAVGIQFMFLRILAWMPSPVIHGSAIDTTCVHWALSCGRRAVCRYYNNDLLRNRFIGLQFFFKTGSVICFALVLAVLRQQDKEARTKESRSSPAVEQQLLVSGPGKKPEDSRV
- Km [1]: 34.7 µM
- Km [2]: 41.6 µM

B4: OAT4 (Homo sapiens) (protein)
chain: MAFSKLLEQAGGVGLFQTLQVLTFILPCLMIPSQMLLENFSAAIPGHRCWTHMLDNGSAVSTNMTPKALLTISIPPGPNQGPHQCRRFRQPQWQLLDPNATATSWSEADTEPCVDGWVYDRSVFTSTIVAKWDLVCSSQGLKPLSQSIFMSGILVGSFIWGLLSYRFGRKPMLSWCCLQLAVAGTSTIFAPTFVIYCGLRFVAAFGMAGIFLSSLTLMVEWTTTSRRAVTMTVVGCAFSAGQAALGGLAFALRDWRTLQLAASVPFFAISLISWWLPESARWLIIKGKPDQALQELRKVARINGHKEAKNLTIEVLMSSVKEEVASAKEPRSVLDLFCVPVLRWRSCAMLVVNFSLLISYYGLVFDLQSLGRDIFLLQALFGAVDFLGRATTALLLSFLGRRTIQAGSQAMAGLAILANMLVPQDLQTLRVVFAVLGKGCFGISLTCLTIYKAELFPTPVRMTADGILHTVGRLGAMMGPLILMSRQALPLLPPLLYGVISIASSLVVLFFLPETQGLPLPDTIQDLESQKSTAAQGNRQEAVTVESTSL
- Km [1]: 32.9 µM
- Km [2]: 52.5 µM
